Assay results published in IntAct's records for PubMed 22796944.

Legend:
cdc73_yeast CDC73 = cdc73_yeast CDC73 (UniProt Q06697)
rtf1_yeast RTF1 = rtf1_yeast RTF1 (UniProt P53064)
Sequence of rtf1_yeast RTF1 (P53064 whole entry): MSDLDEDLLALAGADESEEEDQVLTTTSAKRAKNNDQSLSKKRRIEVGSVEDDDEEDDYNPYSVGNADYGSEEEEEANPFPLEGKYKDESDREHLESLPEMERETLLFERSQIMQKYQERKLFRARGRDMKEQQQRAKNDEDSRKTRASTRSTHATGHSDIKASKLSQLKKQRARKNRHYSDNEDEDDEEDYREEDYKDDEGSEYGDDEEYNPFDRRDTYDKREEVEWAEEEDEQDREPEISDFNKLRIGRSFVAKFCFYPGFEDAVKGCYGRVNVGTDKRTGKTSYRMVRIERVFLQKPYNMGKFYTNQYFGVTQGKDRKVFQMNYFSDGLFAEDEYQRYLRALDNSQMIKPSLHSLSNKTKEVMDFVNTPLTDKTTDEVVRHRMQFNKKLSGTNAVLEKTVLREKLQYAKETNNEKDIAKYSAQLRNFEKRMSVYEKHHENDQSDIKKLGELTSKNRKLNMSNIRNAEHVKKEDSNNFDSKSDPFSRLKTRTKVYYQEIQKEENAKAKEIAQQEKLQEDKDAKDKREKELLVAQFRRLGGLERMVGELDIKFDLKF

Sequence of cdc73_yeast CDC73 (Q06697 whole entry): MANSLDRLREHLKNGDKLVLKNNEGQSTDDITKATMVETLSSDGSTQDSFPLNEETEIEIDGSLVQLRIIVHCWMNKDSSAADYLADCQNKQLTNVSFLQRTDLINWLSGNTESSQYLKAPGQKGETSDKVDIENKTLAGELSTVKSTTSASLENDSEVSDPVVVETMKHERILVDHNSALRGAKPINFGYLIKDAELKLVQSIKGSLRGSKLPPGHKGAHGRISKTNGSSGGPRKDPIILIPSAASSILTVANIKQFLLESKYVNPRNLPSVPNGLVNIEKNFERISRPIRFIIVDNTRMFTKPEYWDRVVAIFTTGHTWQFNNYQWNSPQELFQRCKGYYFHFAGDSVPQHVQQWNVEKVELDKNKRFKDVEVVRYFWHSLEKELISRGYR

Row | Substance | effect of a mutation on the interaction (cdc73_yeast CDC73) | effect of a mutation on the interaction (rtf1_yeast RTF1)
1 | DNA-directed RNA polymerase II subunit RPB1 (Saccharomyces cerevisiae), P04050 S1557D | decreasing interaction | disrupting interaction
2 | DNA-directed RNA polymerase II subunit RPB1 (Saccharomyces cerevisiae), P04050 S1560D | decreasing interaction | disrupting interaction
